Assays:
Experiment in all cases: ProtoArray, GST-treated control array
Conditions in all cases: remark: other sources report otherwise
[1] = biological target: C12orf23-chromosome 12 open reading frame 23 (C12orf23) (human), Q8WUH6
[2] = biological target: UBE2D2-Ubiquitin-conjugating enzyme E2 D2 (human), P62837
[3] = biological target: YPEL5-yippee-like 5 (Drosophila) (YPEL5) (human), P62699
Chain of YPEL5-yippee-like 5 (Drosophila) (YPEL5) (human), P62699 (P62699 whole entry): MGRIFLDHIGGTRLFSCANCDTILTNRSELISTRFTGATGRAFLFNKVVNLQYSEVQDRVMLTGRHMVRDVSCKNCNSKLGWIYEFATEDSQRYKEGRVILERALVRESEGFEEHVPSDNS

Chain of UBE2D2-Ubiquitin-conjugating enzyme E2 D2 (human), P62837 (P62837 whole entry): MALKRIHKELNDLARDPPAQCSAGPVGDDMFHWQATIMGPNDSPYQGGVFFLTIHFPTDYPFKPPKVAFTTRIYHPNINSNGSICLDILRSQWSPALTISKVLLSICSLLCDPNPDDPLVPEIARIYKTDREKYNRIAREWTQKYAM

B1: 3× Flag-3×MBT (designed binder, not shown: a dimerising Fc or GST)
chain: EEWSSSQPATGEKKECWSWESYLEEQKAITAPVSLFQDSQAVTHNKNGFKLGMKLEGIDPQHPSMYFILTVAEVCGYRLRLHFDGYSECHDFWVNANSPDIHPAGWFEKTGHKLQPPKGYKEEEFSWSQYLRSTRAQAAPKHLFVSQSHSPPPLGFQVGMKLEAVDRMNPSLVCVASVTDVVDSRFLVHFDNWDDTYDYWCDPSSPYIHPVGWCQKQGKPLTPPQDYPDPDNFCWEKYLEETGASAVPTWAFKVRPPHSFLVNMKLEAVDRRNPALIRVASVEDVEDHRIKIHFDGWSHGYDFWIDADHPDIHPAGWCSKTGHPLQPPLGPREPSSASPGG
In the case of B1, the GST Average SNR [1] is reported as 0.48, the GST Average SNR [2] is reported as -0.383 and the GST Average SNR [3] is reported as -0.787.
